Laboratory results as given in patent publication US20220315655A1.

Biological target: recombinant cynomolgus monkey PD-L1 soluble protein (cynomolgus monkey) (UniProt G7PSE7)
Assay: sandwich ELISA, antibody captured on anti-human Fc, biotinylated rec. cynomolgus PD-L1 titrated (x axis), fluorescence

Sequence of recombinant cynomolgus monkey PD-L1 soluble protein (cynomolgus monkey) (G7PSE7 entry or part of it): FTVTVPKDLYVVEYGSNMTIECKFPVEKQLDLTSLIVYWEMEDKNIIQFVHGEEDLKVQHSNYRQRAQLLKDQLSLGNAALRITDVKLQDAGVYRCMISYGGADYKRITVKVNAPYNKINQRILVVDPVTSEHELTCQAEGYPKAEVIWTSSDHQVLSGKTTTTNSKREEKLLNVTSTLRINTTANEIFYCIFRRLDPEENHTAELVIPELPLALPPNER
Sequence of Avelumab (antibody) (VH): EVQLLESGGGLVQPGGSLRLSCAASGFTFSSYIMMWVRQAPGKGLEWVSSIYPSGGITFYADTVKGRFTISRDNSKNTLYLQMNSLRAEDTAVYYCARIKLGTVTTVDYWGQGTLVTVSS
Sequence of Avelumab (antibody) (VL): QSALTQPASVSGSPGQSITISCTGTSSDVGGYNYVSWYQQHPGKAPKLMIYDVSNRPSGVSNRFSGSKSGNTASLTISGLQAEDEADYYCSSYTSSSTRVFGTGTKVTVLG

- EC50 (read off the curve): 0.05 nM
Substance: Avelumab (antibody)
